Reference: US20240116985A1 (published 2024)
Starred links: 1 amine or outer side, 2 acyl side, 3 side chain; linkers in the order of their positions; H or OH if unused. Positions of bridges follow the written chain, without caps; N, C: chain ends. Non-standard residues stand in square brackets, D forms with d. Primed or numbered codes have the meaning given here. *: point of attachment. PyrS2″ = (S)-3-amino-1-((pent-4-en-1-yloxy)carbonyl)pyrrolidine-3-carboxylic acid (stapling residue), C=CCCCOC(=O)N1CC[C@@](N[*:1])(C(=O)[*:2])C1; HypBzEs3OAllyl = (2R,4S)-4-((3-(allyloxy)benzoyl)oxy)pyrrolidine-2-carboxylic acid, C=CCOc1cccc(C(=O)O[C@H]2C[C@H](C(=O)[*:2])N([*:1])C2)c1; B5(4) = 2,2-bis(4-pentenyl)glycine = 2-amino-2-(pent-4-en-1-yl)hept-6-enoic acid (stitching residue), C=CCCCC(CCCC=C)(N[*:1])C(=O)[*:2]; (Me2NPrPip)GlnR″ = Glu side chain amide with 4-(3-(dimethylamino)propyl)piperazine, CN(C)CCCN1CCN(C(=O)CC[C@H](N[*:1])C(=O)[*:2])CC1; TfeGA = (S)-2-amino-3-((carboxymethyl)(2,2,2-trifluoroethyl)amino)propanoic acid, O=C([C@H](CN(CC(=O)[*:3])CC(F)(F)F)N[*:1])[*:2]; PyrS2 = (S)-3-amino-1-((pent-4-en-1-yloxy)carbonyl)pyrrolidine-3-carboxylic acid, C=CCCCOC(=O)N1CC[C@@](N[*:1])(C(=O)[*:2])C1; (2OxoPpz)GlnR = Glu side chain amide with 2-oxopiperazine (3-oxopiperazin-1-yl), O=C1CN(C(=O)CC[C@H](N[*:1])C(=O)[*:2])CCN1; (EtSO2Ppz)GlnR = Glu side chain amide with 4-(ethylsulfonyl)piperazine, CCS(=O)(=O)N1CCN(C(=O)CC[C@H](N[*:1])C(=O)[*:2])CC1; (bismethoxyethylamine)GlnR″ = N5,N5-bis(2-methoxyethyl)-L-glutamine, COCCN(CCOC)C(=O)CC[C@H](N[*:1])C(=O)[*:2]; B5(3) = 2,2-bis(4-pentenyl)glycine (stitching residue), C=CCCCC(CCCC=C)(N[*:1])C(=O)[*:2]; B5(28) = 2,2-bis(4-pentenyl)glycine, C=CCCCC(CCCC=C)(N[*:1])C(=O)[*:2]; Phe(3-COOH) = N[C@@H](Cc1cccc(C(=O)O)c1)C(=O)O; 2F3MeF = Cc1cccc(C[C@H](N[*:1])C(=O)[*:2])c1F; Phe(2-CF3) = N[C@@H](Cc1ccccc1C(F)(F)F)C(=O)O; Phe(2-Cl) = N[C@@H](Cc1ccccc1Cl)C(=O)O; Bta = N[C@@H](Cc1csc2ccccc12)C(=O)O; αAllylPro = C=CC[C@@]1(C(=O)O)CCCN1; isoindolineGlnR = not defined here; tBuAla = CC(C)(C)C[C@H](N)C(=O)O; 3Thi = N[C@@H](Cc1ccsc1)C(=O)O; 2F3MeF(3) = Phe analogue; Abu = CC[C@H](N)C(=O)O; Aib = CC(C)(N)C(=O)O; Moc = COC(=O)*

T1: Bcat-Halo (UniProt P35222 1-781)
T1 sequence (looked up): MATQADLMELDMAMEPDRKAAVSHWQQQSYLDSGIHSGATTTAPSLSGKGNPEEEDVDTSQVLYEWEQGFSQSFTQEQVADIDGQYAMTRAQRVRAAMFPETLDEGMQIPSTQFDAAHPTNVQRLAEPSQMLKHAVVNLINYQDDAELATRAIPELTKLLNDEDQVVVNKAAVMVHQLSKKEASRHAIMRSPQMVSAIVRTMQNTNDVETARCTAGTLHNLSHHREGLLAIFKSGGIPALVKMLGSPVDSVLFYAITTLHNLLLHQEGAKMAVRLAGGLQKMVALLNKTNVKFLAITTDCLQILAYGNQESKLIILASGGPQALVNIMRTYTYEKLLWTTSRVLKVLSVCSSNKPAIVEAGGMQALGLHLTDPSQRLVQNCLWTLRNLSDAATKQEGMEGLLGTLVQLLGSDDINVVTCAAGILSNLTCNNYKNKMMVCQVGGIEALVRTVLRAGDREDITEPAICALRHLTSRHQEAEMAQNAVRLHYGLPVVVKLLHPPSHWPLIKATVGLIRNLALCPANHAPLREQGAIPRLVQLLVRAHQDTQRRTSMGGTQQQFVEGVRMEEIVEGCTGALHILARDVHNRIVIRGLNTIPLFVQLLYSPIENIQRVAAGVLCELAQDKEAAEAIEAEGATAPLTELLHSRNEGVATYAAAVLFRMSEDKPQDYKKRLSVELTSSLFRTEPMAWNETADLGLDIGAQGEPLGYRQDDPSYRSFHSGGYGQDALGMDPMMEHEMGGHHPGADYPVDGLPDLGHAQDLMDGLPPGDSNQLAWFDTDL

T2: B-cat-Halo (beta-catenin HaloTag NanoBRET construct expressed in HEK293 cells) (UniProt P35222 1-781)
T2 sequence (looked up): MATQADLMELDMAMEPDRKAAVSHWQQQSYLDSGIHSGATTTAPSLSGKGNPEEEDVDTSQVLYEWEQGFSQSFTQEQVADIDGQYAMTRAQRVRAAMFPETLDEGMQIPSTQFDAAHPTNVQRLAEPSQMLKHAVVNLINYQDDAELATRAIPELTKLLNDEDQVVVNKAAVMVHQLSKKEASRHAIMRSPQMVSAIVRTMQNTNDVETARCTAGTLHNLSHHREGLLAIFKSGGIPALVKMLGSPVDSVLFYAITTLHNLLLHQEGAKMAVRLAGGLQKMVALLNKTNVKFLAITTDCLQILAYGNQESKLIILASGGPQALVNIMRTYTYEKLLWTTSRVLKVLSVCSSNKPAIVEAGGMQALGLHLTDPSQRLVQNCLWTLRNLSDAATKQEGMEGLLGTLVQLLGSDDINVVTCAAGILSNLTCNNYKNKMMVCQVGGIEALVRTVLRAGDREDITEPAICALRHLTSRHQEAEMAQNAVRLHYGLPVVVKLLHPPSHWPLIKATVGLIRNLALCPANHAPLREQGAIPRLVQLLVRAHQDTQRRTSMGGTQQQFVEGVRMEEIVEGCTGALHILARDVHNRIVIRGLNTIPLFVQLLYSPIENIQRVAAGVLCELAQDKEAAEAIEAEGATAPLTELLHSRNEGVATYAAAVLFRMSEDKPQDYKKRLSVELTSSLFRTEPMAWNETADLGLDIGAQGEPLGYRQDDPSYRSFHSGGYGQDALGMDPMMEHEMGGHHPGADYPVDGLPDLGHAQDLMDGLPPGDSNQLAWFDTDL


molecular target: T1, Bcat-Halo; assay: cell-based or functional assay

Going from Moc-[αAllylPro]D[tBuAla][B5(3)]D[Phe(3-COOH)]AAFL[PyrS2″][Phe(2-Cl)][Bta]A-NH2 (staple 1-4, 4-11) [I-2324] to Ac-[αAllylPro]D[tBuAla][B5(4)]D[Phe(3-COOH)][(bismethoxyethylamine)GlnR″]AFL[PyrS2″][2F3MeF][Bta]A-NH2 (staple 1-4, 4-11) [I-2322], the “NanoBRET Abs IC50” value falls from 14.8 µM to 1.8 µM (8.2-fold).

Going from Ac-[αAllylPro]D[tBuAla][B5(4)]D[Phe(3-COOH)][(Me2NPrPip)GlnR″]AFL[PyrS2″][2F3MeF][Bta]A-NH2 (staple 1-4, 4-11) [I-2323] to Ac-[αAllylPro]D[tBuAla][B5(28)]D[Phe(3-COOH)][isoindolineGlnR]AFL[PyrS2][2F3MeF][Bta]A-NH2 (staple 1-4, 4-11; reading uncertain) [I-2320], the “NanoBRET Abs IC50” value falls from 17.7 µM to 2.7 µM (6.6-fold).

Going from Ac-[αAllylPro]D[tBuAla][B5(4)]D[Phe(3-COOH)][(2OxoPpz)GlnR]AFL[PyrS2″][2F3MeF][Bta]A-NH2 (staple 1-4, 4-11) [I-2318] to Ac-[αAllylPro]D[tBuAla][B5(3)]N[Phe(3-COOH)]AAFN[PyrS2″][3Thi][Bta]Q-NH2 (staple 1-4, 4-11) [I-2335], the “NanoBRET Abs IC50” value rises from 1.8 µM to 37 µM (21-fold).

Compared with Ac-[HypBzEs3OAllyl]D[tBuAla][B5(3)]D[TfeGA]AAFL[PyrS2″][3Thi][Bta]Q-NH2 (staple 1-4, 4-11; also: staple -CH=CH- reduced to -CH2-CH2-) [I-2328], Ac-[αAllylPro]D[tBuAla][B5(4)]D[Phe(3-COOH)][(EtSO2Ppz)GlnR]AFL[PyrS2″][2F3MeF][Bta]A-NH2 (staple 1-4, 4-11) [I-2321] is lower in “NanoBRET Abs IC50” value: greater than 20 µM for the first, 1.7 µM for the second.

molecular target: T2, B-cat-Halo (beta-catenin HaloTag …); assay: cell-based or functional assay

First: Ac-[αAllylPro]D[tBuAla][B5(3)]D[Phe(3-COOH)]QAFL[PyrS2″][2F3MeF(3)][SbMe2NapA]A-NH2 (staple 1-4, 4-11) [Ac-PL3-Asp-Npg-B5-Asp-3COOHF-Gln-Ala-Phe-Leu-PyrS2-2F3MeF-SbMe2NapA-Ala-NH2]
Second: Ac-[αAllylPro]D[tBuAla][B5(3)]D[Phe(3-COOH)]QAFL[PyrS2″][Phe(2-CF3)][RbMe2NapA]A-NH2 (staple 1-4, 4-11) [Ac-PL3-Asp-Npg-B5-Asp-3COOHF-Gln-Ala-Phe-Leu-PyrS2-2F3MeF-RbMe2NapA-Ala-NH2]
The “NanoBRET Abs IC50” value of the first is higher: greater than 20 µM for the first, 6.5 µM for the second.

Going from Ac-[αAllylPro]D[tBuAla][B5(3)]D[TfeGA]AAFL[PyrS2″][3Thi][Bta][(NHEt)GlnR]A-NH2 (staple 1-4, 4-11) [Ac-PL3-Asp-Npg-B5-Asp-TfeGA-Ala-Ala-Phe-Leu-PyrS2-3Thi-BztA-[NHEt]GlnR-Ala-NH2] to Ac-[αAllylPro]D[tBuAla][B5(3)]D[Phe(3-COOH)]AAFL[PyrS2″][Phe(2-CF3)][SbMe2NapA]Q-NH2 (staple 1-4, 4-11) [Ac-PL3-Asp-Npg-B5-Asp-3COOHF-Ala-Ala-Phe-Leu-PyrS2-2F3MeF-SbMe2NapA-Gln-NH2], the “NanoBRET Abs IC50” value rises from 2.1 µM to 16.5 µM (7.9-fold).

Ac-[αAllylPro]D[tBuAla][B5(3)]NT[Aib]AFN[PyrS2″][3Thi][Bta]Y-NH2 (staple 1-4, 4-11) [Ac-PL3-Asp-Npg-B5-Asn-Thr-Aib-Ala-Phe-Asn-PyrS2-3Thi-BztA-Tyr-NH2] and Ac-[αAllylPro]D[tBuAla][B5(3)]NT[Aib]AFN[PyrS2″][3Thi][Bta]K-NH2 (staple 1-4, 4-11) [Ac-PL3-Asp-Npg-B5-Asn-Thr-Aib-Ala-Phe-Asn-PyrS2-3Thi-BztA-Lys-NH2] cannot be ordered by “NanoBRET Abs IC50” value: greater than 20 µM for the first, greater than 20 µM for the second.

With Ac-[αAllylPro]D[tBuAla][B5(3)]D[Phe(3-COOH)]AAF[Abu][PyrS2″][2F3MeF][Bta][(NHEt)GlnR]A-NH2 (staple 1-4, 4-11) [Ac-PL3-Asp-Npg-B5-Asp-3COOHF-Ala-Ala-Phe-Abu-PyrS2-2F3MeF-BztA-[NHEt]GlnR-Ala-NH2] the “NanoBRET Abs IC50” value was 1.8 µM.
